The chains are these.
B1: Wnt5a (ligand, UniProt P41221 62-380, looked up)
chain: IIGAQPLCSQLAGLSQGQKKLCHLYQDHMQYIGEGAKTGIKECQYQFRHRRWNCSTVDNTSVFGRVMQIGSRETAFTYAVSAAGVVNAMSRACREGELSTCGCSRAARPKDLPRDWLWGGCGDNIDYGYRFAKEFVDARERERIHAKGSYESARILMNLHNNEAGRRTVYNLADVACKCHGVSGSCSLKTCWLQLADFRKVGDALKEKYDSAAAMRLNSRGKLVQVNSRFNSPTTQDLVYIDPSPDYCVRNESTGSLGTQGRLCNKTSEGMDGCELMCCGRGYDQFKTVQTERCHCKFHWCCYVKCKKCTEIVDQFVCK
notes: Wnt5a, purified protein; also called purified Wnt5a; source: purified
B2: Wnt11 (ligand, UniProt O96014 25-354, looked up)
chain: IKWLALSKTPSALALNQTQHCKQLEGLVSAQVQLCRSNLELMHTVVHAAREVMKACRRAFADMRWNCSSIELAPNYLLDLERGTRESAFVYALSAAAISHAIARACTSGDLPGCSCGPVPGEPPGPGNRWGGCADNLSYGLLMGAKFSDAPMKVKKTGSQANKLMRLHNSEVGRQALRASLEMKCKCHGVSGSCSIRTCWKGLQELQDVAADLKTRYLSATKVVHRPMGTRKHLVPKDLDIRPVKDSELVYLQSSPDFCMKNEKVGSHGTQDRQCNKTSNGSDSCDLMCCGRGYNPYTDRVVERCHCKYHWCCYVTCRRCERTVERYVCK
notes: Wnt11, purified protein; also called purified Wnt11; source: purified
B3: Wnt3a (ligand, UniProt P56704 19-352, looked up)
chain: SYPIWWSLAVGPQYSSLGSQPILCASIPGLVPKQLRFCRNYVEIMPSVAEGIKIGIQECQHQFRGRRWNCTTVHDSLAIFGPVLDKATRESAFVHAIASAGVAFAVTRSCAEGTAAICGCSSRHQGSPGKGWKWGGCSEDIEFGGMVSREFADARENRPDARSAMNRHNNEAGRQAIASHMHLKCKCHGLSGSCEVKTCWWSQPDFRAIGDFLKDKYDSASEMVVEKHRESRGWVETLRPRYTYFKVPTERDLVYYEASPNFCEPNPETGSFGTRDRTCNVSSHGIDGCDLLCCGRGHNARAERRREKCRCVFHWCCYVSCQECTRVYDVHTCK
notes: Wnt3a, purified protein; also called purified Wnt3a; source: purified

The source of these data is paper PMC11770177, “Skeletal progenitor LRP1 deficiency causes severe and persistent skeletal defects with Wnt pathway dysregulation” (Bone Research, 2025).

T1 sequence (Q07954 20-4544): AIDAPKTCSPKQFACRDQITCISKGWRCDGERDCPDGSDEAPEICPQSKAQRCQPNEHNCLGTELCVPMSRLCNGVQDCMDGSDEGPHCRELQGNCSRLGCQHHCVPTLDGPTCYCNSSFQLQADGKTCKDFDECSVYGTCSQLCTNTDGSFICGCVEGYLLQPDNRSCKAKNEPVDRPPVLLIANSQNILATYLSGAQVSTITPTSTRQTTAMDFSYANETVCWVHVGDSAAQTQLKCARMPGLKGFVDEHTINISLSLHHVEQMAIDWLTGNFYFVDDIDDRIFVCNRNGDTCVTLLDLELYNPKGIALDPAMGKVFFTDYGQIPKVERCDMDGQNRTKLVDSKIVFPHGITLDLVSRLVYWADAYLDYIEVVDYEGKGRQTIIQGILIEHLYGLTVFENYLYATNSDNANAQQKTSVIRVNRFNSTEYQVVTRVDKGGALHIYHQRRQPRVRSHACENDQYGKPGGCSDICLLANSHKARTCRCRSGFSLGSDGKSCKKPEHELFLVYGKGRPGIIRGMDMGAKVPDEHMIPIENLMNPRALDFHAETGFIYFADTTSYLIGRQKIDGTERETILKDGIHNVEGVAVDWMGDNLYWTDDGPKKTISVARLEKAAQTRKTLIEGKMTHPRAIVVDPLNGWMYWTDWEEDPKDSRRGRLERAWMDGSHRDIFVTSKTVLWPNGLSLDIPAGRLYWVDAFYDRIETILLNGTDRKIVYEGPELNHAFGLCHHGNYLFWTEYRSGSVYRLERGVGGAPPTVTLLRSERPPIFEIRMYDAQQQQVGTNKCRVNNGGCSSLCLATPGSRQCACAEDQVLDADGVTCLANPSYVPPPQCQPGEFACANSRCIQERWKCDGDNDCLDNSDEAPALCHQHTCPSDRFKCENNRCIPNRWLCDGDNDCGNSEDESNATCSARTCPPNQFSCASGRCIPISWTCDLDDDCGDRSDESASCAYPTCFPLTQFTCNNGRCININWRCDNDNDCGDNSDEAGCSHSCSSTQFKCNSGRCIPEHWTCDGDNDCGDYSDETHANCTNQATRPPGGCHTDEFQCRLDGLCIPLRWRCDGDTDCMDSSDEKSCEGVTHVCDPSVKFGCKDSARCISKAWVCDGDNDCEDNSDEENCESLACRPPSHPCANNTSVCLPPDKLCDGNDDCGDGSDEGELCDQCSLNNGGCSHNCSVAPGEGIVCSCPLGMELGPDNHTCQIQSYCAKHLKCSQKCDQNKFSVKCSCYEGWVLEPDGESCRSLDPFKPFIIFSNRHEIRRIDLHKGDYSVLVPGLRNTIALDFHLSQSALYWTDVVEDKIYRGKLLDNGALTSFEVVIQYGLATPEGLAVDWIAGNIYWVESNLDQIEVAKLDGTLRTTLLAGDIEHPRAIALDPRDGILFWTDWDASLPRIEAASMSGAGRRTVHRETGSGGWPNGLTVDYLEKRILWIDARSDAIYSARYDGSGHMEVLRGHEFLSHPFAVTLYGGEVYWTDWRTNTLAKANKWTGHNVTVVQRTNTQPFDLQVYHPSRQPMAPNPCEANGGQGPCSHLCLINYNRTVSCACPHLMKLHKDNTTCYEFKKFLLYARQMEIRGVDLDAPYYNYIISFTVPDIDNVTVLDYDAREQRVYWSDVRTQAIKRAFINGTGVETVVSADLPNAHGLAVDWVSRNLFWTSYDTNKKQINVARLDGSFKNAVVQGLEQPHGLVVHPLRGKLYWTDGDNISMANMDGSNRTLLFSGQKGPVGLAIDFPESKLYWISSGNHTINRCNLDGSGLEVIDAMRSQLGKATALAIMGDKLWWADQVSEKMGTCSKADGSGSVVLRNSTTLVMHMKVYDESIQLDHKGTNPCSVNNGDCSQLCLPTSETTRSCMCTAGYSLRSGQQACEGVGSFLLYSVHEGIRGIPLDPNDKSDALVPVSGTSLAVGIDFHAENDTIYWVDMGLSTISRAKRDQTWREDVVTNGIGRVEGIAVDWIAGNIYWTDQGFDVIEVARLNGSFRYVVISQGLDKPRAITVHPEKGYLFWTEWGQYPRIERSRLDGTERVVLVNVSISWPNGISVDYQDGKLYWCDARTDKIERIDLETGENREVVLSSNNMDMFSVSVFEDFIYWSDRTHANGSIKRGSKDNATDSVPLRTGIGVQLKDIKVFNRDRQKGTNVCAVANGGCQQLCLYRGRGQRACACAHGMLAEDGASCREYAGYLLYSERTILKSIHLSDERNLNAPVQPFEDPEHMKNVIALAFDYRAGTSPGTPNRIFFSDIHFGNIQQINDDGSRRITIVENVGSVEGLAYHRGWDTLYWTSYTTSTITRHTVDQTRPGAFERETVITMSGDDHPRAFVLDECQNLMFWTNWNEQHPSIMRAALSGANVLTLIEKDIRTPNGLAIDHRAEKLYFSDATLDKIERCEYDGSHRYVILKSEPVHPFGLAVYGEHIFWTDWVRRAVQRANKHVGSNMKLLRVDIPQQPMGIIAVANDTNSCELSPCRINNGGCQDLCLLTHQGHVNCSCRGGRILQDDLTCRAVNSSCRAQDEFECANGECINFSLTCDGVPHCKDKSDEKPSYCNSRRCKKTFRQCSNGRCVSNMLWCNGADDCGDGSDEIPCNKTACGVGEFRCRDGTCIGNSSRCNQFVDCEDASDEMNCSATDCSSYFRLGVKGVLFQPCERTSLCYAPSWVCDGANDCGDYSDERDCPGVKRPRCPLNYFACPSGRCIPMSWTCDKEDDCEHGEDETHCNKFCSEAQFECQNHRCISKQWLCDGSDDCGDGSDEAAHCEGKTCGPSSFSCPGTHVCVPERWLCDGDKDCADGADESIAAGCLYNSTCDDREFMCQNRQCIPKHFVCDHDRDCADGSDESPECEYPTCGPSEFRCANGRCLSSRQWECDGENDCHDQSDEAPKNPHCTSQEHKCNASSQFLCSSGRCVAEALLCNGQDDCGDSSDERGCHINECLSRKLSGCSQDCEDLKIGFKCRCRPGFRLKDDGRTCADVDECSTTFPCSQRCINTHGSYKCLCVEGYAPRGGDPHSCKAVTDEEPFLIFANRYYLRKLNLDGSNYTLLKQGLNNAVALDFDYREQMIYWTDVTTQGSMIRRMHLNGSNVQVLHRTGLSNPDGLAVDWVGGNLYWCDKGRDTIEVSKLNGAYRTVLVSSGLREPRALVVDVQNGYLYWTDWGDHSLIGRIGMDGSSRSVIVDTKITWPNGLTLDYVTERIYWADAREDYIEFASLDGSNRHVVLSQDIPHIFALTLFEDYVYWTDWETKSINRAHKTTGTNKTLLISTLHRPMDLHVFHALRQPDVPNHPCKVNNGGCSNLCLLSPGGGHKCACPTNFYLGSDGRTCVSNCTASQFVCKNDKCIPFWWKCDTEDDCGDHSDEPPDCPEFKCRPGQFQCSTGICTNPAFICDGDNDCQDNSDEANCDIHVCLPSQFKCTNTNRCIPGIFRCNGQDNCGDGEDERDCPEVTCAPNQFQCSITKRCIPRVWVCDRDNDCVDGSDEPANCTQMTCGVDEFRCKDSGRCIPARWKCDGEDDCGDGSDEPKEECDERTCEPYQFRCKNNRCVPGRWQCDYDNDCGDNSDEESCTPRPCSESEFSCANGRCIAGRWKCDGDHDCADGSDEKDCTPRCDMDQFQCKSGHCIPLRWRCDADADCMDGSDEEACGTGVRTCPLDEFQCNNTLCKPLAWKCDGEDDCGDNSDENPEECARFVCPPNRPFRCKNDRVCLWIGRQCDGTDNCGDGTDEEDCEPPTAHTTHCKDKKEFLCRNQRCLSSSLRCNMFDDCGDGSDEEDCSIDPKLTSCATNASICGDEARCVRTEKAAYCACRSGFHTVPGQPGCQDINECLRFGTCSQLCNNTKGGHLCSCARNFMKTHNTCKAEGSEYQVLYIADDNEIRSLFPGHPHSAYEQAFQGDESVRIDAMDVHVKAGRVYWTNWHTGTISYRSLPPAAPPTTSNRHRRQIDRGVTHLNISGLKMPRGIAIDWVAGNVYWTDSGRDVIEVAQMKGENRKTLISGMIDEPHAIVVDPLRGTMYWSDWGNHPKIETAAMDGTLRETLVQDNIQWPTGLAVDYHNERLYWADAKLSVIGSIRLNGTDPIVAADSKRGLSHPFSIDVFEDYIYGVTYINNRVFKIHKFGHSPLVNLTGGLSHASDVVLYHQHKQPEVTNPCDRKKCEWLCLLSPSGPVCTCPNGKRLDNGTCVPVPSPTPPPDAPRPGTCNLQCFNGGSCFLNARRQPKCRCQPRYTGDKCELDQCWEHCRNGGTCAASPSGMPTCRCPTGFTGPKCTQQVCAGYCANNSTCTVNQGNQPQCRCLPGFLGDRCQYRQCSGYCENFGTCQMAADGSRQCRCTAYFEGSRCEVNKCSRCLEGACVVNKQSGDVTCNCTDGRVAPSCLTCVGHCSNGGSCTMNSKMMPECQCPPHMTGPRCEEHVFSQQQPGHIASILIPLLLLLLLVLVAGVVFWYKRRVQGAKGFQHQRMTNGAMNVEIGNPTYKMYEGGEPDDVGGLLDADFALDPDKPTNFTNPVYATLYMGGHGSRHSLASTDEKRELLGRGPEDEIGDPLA

The experiment has as its target T1, low-density lipoprotein (LDL) receptor-related protein 1 (LRP1), purified human full-length (human, UniProt Q07954 20-4544).
T1 construct: LRP1, human, purified full-length protein coated onto microtiter plates; also called full-length LRP1; Full-length sLRP1; source: purified
The experiment is described as follows: ELISA; solid-phase binding assay; human full-length LRP1 (10 nmol/L) coated overnight at 4 °C onto microtiter plates in 50 mmol/L Tris-HCl (pH 7.5)/150 mmol/L NaCl/10 mmol/L CaCl2; 0-200 nmol/L Wnt in 5% BSA blocking solution, 30 min at RT; bound Wnt detected with a specific antibody; signal of wells without LRP1 subtracted; apparent KD (K_D,app), extrapolated from a one-phase decay nonlinear fit. Conditions: both partners purified.
In the case of B1, the Kd was 31 nM.
Turning to B2, the Kd is 42 nM.
On to B3, for which the Kd was > 200 nM.
